Consider two molecules from article doi:10.1101/2025.05.24.655746 (bioRxiv, 2025).

As usually defined, the Kd is the constant that tells how readily two partners part at equilibrium.

The chains are these.
B1: RAD51 recombinase (natural protein)
chain: MAMQMQLEANADTSVEEESFGPQPISRLEQCGINANDVKKLEEAGFHTVEAVAYAPKKELINIKGISEAKADKILAEAAKLVPMGFTTATEFHQRRSEIIQITTGSKELDKLLQGGIETGSITEMFGEFRTGKTQICHTLAVTCQLPIDRGGGEGKAMYIDTEGTFRPERLLAVAERYGLSGSDVLDNVAYARAFNTDHQTQLLYQASAMMVESRYALLIVDSATALYRTDYSGRGELSARQMHLARFLRMLLRLADEFGVAVVITNQVVAQVDGAAMFAADPKKPIGGNIIAHASTTRLYLRKGRGETRICKIYDSPCLPEAEAMFAINADGVGDAKD
B2: full-length RAD51AP1 Site-N mutant (K300, K303, W304, P306, P307 to alanine) (natural protein)
chain: MVRPVRHKKPVNYSQFDHSDSDDDFVSATVPLNKKSRTAPKELKQDKPKPNLNNLRKEEIPVQEKTPKKRLPEGTFSIPASAVPCTKMALDDKLYQRDLEVALALSVKELPTVTTNVQNSQDKSIEKHGSSKIETMNKSPHISNCSVASDYLDLDKITVEDDVGGVQGKRKAASKAAAQQRKILLEGSDGDSANDTEPDFAPGEDSEDDSDFCESEDNDEDFSMRKSKVKEIKKKEVKVKSPVEKKEKKSKSKCNALVTSVDSAPAAVKSESQSLPKKVSLSSDTTRKPLEIRSPSAESAKPAAVAAAASGGSRSSSSPLVVVSVKSPNQSLRLGLSRLARVKPLHPNATST

Residue numbers refer to the chain shown, from its start.

The target of experiment [1] is T1, full-length RAD51AP1 variant in which both Site-N and Site-C are mutated (NC) (UniProt Q96B01 1-352).
T1 chain: B2 chain with H346A
The experiment in a line: BLI. (BLI is a label-free optical method that tracks binding on a fibre tip over time.)

Experiment [2] has as its target T2, full-length RAD51AP1 (RAD51 Associated Protein 1), wild type (UniProt Q96B01 1-352).
T2 sequence: B2 chain with A300K, A303K, A304W, A306P, A307P
The experiment in a line: BLI.

Experiment [3] addresses T3, full-length RAD51AP1-H346A (Site-C mutant) (UniProt Q96B01 1-352, H346A).
T3 sequence: B2 chain with A300K, A303K, A304W, A306P, A307P, H346A
In words: BLI.

Experiment [4] deals with B1. In words: pull-down.

Consider B1, for which the “fold reduction in affinity against wild type” value in experiment [1] was roughly 4 fold. The molecule also showed a Kd in experiment [2] of roughly 600 nM. In addition, in experiment [3], the “fold decrease in binding affinity against wild type” value was roughly 2.5 fold.

In the case of B2, in experiment [4], the binding result is “binds”.
